In US20060210984A1:

Tests used:
[1] = biological target: IL-8 (human) (UniProt P10145); experiment: sandwich microarray in flow cell, chemiluminescence, cytokine 1 ng/ml, divided by chip-specific PNA calibration factor; AVG of Chips 1-5
[2] = biological target: IL-8 (human) (UniProt P10145); experiment: sandwich microarray in flow cell, chemiluminescence, cytokine 1 ng/ml, divided by chip-specific PNA calibration factor; Chip 4
[3] = biological target: IL-8 (human) (UniProt P10145); experiment: sandwich microarray in flow cell, chemiluminescence, cytokine 1 ng/ml; AVG of Chips 1-5
[4] = biological target: IL-8 (human) (UniProt P10145); experiment: sandwich microarray in flow cell, chemiluminescence, cytokine 1 ng/ml; Chip 4
[5] = biological target: IL-8 (human) (UniProt P10145); experiment: sandwich microarray in flow cell, chemiluminescence, cytokine 1 ng/ml, divided by chip-specific PNA calibration factor; Chip 1
[6] = biological target: IL-8 (human) (UniProt P10145); experiment: sandwich microarray in flow cell, chemiluminescence, cytokine 1 ng/ml; Chip 1
[7] = biological target: IL-8 (human) (UniProt P10145); experiment: sandwich microarray in flow cell, chemiluminescence, cytokine 1 ng/ml, divided by chip-specific PNA calibration factor; Chip 2
[8] = biological target: IL-8 (human) (UniProt P10145); experiment: sandwich microarray in flow cell, chemiluminescence, cytokine 1 ng/ml; Chip 5
[9] = biological target: IL-8 (human) (UniProt P10145); experiment: sandwich microarray in flow cell, chemiluminescence, cytokine 1 ng/ml, divided by chip-specific PNA calibration factor; Chip 5
[10] = biological target: IL-8 (human) (UniProt P10145); experiment: sandwich microarray in flow cell, chemiluminescence, cytokine 1 ng/ml; Chip 2
[11] = biological target: IL-8 (human) (UniProt P10145); experiment: sandwich microarray in flow cell, chemiluminescence, cytokine 1 ng/ml, divided by chip-specific PNA calibration factor; Chip 3
[12] = biological target: IL-8 (human) (UniProt P10145); experiment: sandwich microarray in flow cell, chemiluminescence, cytokine 1 ng/ml; Chip 3
[13] = biological target: IL-10 (human) (UniProt P22301); experiment: sandwich microarray in flow cell, chemiluminescence, cytokine 1 ng/ml, divided by chip-specific PNA calibration factor; AVG of Chips 1-5
[14] = biological target: IL-10 (human) (UniProt P22301); experiment: sandwich microarray in flow cell, chemiluminescence, cytokine 1 ng/ml, divided by chip-specific PNA calibration factor; Chip 4
[15] = biological target: IL-10 (human) (UniProt P22301); experiment: sandwich microarray in flow cell, chemiluminescence, cytokine 1 ng/ml; AVG of Chips 1-5
[16] = biological target: IL-10 (human) (UniProt P22301); experiment: sandwich microarray in flow cell, chemiluminescence, cytokine 1 ng/ml; Chip 4
[17] = biological target: IL-10 (human) (UniProt P22301); experiment: sandwich microarray in flow cell, chemiluminescence, cytokine 1 ng/ml, divided by chip-specific PNA calibration factor; Chip 1
[18] = biological target: IL-10 (human) (UniProt P22301); experiment: sandwich microarray in flow cell, chemiluminescence, cytokine 1 ng/ml; Chip 1
[19] = biological target: IL-10 (human) (UniProt P22301); experiment: sandwich microarray in flow cell, chemiluminescence, cytokine 1 ng/ml, divided by chip-specific PNA calibration factor; Chip 2
[20] = biological target: IL-10 (human) (UniProt P22301); experiment: sandwich microarray in flow cell, chemiluminescence, cytokine 1 ng/ml; Chip 5
[21] = biological target: IL-10 (human) (UniProt P22301); experiment: sandwich microarray in flow cell, chemiluminescence, cytokine 1 ng/ml, divided by chip-specific PNA calibration factor; Chip 5
[22] = biological target: IL-10 (human) (UniProt P22301); experiment: sandwich microarray in flow cell, chemiluminescence, cytokine 1 ng/ml; Chip 2
[23] = biological target: IL-10 (human) (UniProt P22301); experiment: sandwich microarray in flow cell, chemiluminescence, cytokine 1 ng/ml, divided by chip-specific PNA calibration factor; Chip 3
[24] = biological target: IL-10 (human) (UniProt P22301); experiment: sandwich microarray in flow cell, chemiluminescence, cytokine 1 ng/ml; Chip 3
[25] = biological target: IL-12p40 (human) (UniProt P29460); experiment: sandwich microarray in flow cell, chemiluminescence, cytokine 1 ng/ml, divided by chip-specific PNA calibration factor; AVG of Chips 1-5
[26] = biological target: IL-12p40 (human) (UniProt P29460); experiment: sandwich microarray in flow cell, chemiluminescence, cytokine 1 ng/ml, divided by chip-specific PNA calibration factor; Chip 4
[27] = biological target: IL-12p40 (human) (UniProt P29460); experiment: sandwich microarray in flow cell, chemiluminescence, cytokine 1 ng/ml; AVG of Chips 1-5
[28] = biological target: IL-12p40 (human) (UniProt P29460); experiment: sandwich microarray in flow cell, chemiluminescence, cytokine 1 ng/ml; Chip 4
[29] = biological target: IL-12p40 (human) (UniProt P29460); experiment: sandwich microarray in flow cell, chemiluminescence, cytokine 1 ng/ml, divided by chip-specific PNA calibration factor; Chip 1
[30] = biological target: IL-12p40 (human) (UniProt P29460); experiment: sandwich microarray in flow cell, chemiluminescence, cytokine 1 ng/ml; Chip 1
[31] = biological target: IL-12p40 (human) (UniProt P29460); experiment: sandwich microarray in flow cell, chemiluminescence, cytokine 1 ng/ml, divided by chip-specific PNA calibration factor; Chip 2
[32] = biological target: IL-12p40 (human) (UniProt P29460); experiment: sandwich microarray in flow cell, chemiluminescence, cytokine 1 ng/ml; Chip 5
[33] = biological target: IL-12p40 (human) (UniProt P29460); experiment: sandwich microarray in flow cell, chemiluminescence, cytokine 1 ng/ml, divided by chip-specific PNA calibration factor; Chip 5
[34] = biological target: IL-12p40 (human) (UniProt P29460); experiment: sandwich microarray in flow cell, chemiluminescence, cytokine 1 ng/ml; Chip 2
[35] = biological target: IL-12p40 (human) (UniProt P29460); experiment: sandwich microarray in flow cell, chemiluminescence, cytokine 1 ng/ml, divided by chip-specific PNA calibration factor; Chip 3
[36] = biological target: IL-12p40 (human) (UniProt P29460); experiment: sandwich microarray in flow cell, chemiluminescence, cytokine 1 ng/ml; Chip 3

Chain of UniProt P22301 (P22301 19-178 limits assumed): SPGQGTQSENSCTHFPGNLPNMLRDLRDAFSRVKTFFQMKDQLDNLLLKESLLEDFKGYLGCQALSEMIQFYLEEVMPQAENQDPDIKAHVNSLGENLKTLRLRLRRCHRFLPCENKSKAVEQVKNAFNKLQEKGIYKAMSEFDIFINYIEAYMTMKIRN
Chain of UniProt P10145 (P10145 28-99 limits assumed): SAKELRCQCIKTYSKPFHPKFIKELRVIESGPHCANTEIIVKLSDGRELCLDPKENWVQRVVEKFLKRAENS
Chain of UniProt P29460 (P29460 23-328 limits assumed): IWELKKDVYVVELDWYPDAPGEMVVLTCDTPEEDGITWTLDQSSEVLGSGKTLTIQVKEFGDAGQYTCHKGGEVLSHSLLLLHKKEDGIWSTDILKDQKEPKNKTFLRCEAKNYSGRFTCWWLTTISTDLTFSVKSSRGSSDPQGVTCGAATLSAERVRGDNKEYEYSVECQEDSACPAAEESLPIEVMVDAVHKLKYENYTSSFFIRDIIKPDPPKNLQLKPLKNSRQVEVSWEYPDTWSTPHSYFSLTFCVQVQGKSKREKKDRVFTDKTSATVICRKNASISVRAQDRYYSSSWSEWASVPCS

MAb IL-8 (monoclonal capture antibody of the anti-human IL-8 OptEIA matched pair, BD Biosciences-Pharmingen)
chemiluminescent spot intensity (Calibrated Data) [1]: 2900 | chemiluminescent spot intensity (Calibrated Data) [2]: 2900 | chemiluminescent spot intensity (Un-Calibrated Data) [3]: 1580 | chemiluminescent spot intensity (Un-Calibrated Data) [4]: 1320 | chemiluminescent spot intensity (Calibrated Data) [5]: 2960 | chemiluminescent spot intensity (Un-Calibrated Data) [6]: 1760 | chemiluminescent spot intensity (Calibrated Data) [7]: 2750 | chemiluminescent spot intensity (Un-Calibrated Data) [8]: 905 | chemiluminescent spot intensity (Calibrated Data) [9]: 2790 | chemiluminescent spot intensity (Un-Calibrated Data) [10]: 804 | chemiluminescent spot intensity (Calibrated Data) [11]: 3100 | chemiluminescent spot intensity (Un-Calibrated Data) [12]: 3100

MAb IL-10 (monoclonal capture antibody of the anti-human IL-10 OptEIA matched pair, BD Biosciences-Pharmingen)
chemiluminescent spot intensity (Calibrated Data) [13]: 1280 | chemiluminescent spot intensity (Calibrated Data) [14]: 1120 | chemiluminescent spot intensity (Un-Calibrated Data) [15]: 691 | chemiluminescent spot intensity (Un-Calibrated Data) [16]: 508 | chemiluminescent spot intensity (Calibrated Data) [17]: 1320 | chemiluminescent spot intensity (Un-Calibrated Data) [18]: 788 | chemiluminescent spot intensity (Calibrated Data) [19]: 1330 | chemiluminescent spot intensity (Un-Calibrated Data) [20]: 414 | chemiluminescent spot intensity (Calibrated Data) [21]: 1280 | chemiluminescent spot intensity (Un-Calibrated Data) [22]: 389 | chemiluminescent spot intensity (Calibrated Data) [23]: 1360 | chemiluminescent spot intensity (Un-Calibrated Data) [24]: 1360

MAb IL-12p40 (monoclonal capture antibody of the anti-human IL-12p40 OptEIA matched pair, BD Biosciences-Pharmingen)
chemiluminescent spot intensity (Calibrated Data) [25]: 285 | chemiluminescent spot intensity (Calibrated Data) [26]: 275 | chemiluminescent spot intensity (Un-Calibrated Data) [27]: 156 | chemiluminescent spot intensity (Un-Calibrated Data) [28]: 125 | chemiluminescent spot intensity (Calibrated Data) [29]: 300 | chemiluminescent spot intensity (Un-Calibrated Data) [30]: 179 | chemiluminescent spot intensity (Calibrated Data) [31]: 270 | chemiluminescent spot intensity (Un-Calibrated Data) [32]: 87 | chemiluminescent spot intensity (Calibrated Data) [33]: 268 | chemiluminescent spot intensity (Un-Calibrated Data) [34]: 79 | chemiluminescent spot intensity (Calibrated Data) [35]: 312 | chemiluminescent spot intensity (Un-Calibrated Data) [36]: 312
